Measured values from patent US11890352B2, “Plectin-targeted liposomes/PARP inhibitor in the treatment of cancer” (University of Virginia Patent Foundation, priority 2018, dated 2024).
One block for each molecule: values may come before it. Where no end group is shown, it is not given here. Side-chain parts run from the residue outwards. The star is where a group is joined. DSPE = CCCCCCCCCCCCCCCCCC(=O)OC[C@H](COP(=O)(O)OCCN*)OC(=O)CCCCCCCCCCCCCCCCC; FAM = 5(6)-carboxyfluorescein

Assays:
[1] = unlabeled liposomes; cited from earlier work
pancreatic cancer = details: clinical study; cited from earlier work
[2] = cited from earlier work
[3] = biological target: T1, cell surface plectin on ovarian cancer cells (SKOV3, OVCAR8) (human, UniProt Q15149 1-4684); assay: cell binding assay on FT132 cells (healthy fallopian tube cells), DiR fluorescence at 780 nm, 1 h at 37 C
T1 construct: whole, on cells; Endogenous plectin mislocalized to the cell surface; also called Plectin-1
Procedure: (§1) FT 132, SKOV3 and OVCAR8 cells were plated in triplicate in a 96 well black plate at a concentration of 5000 cells per well. After 48 h, liposomes at concentrations ranging from […] were incubated with the three cell lines after washing the wells with PBS buffer for 1 h at 37° C. The cells were later washed with PBS and liposomal DiR intensity was measured using a fluorescent plate reader (FLUOstar omega, BMG Labtech Inc. Cary, NC). PTP liposomal binding to the three cell lines was compared with liposomes containing no peptide (background binding) and with NCP (non-specific binding). Background binding by the no peptide liposomes was subtracted from both the non-specific (NCP) and PTP liposomes. To obtain specific binding of PTP liposomes, we subtracted non-specific (NCP) binding from the total binding by the PTP liposomes.
(§2) Figure 2B: Figure 3A: FIGS. 3A-C. PTP liposomes bind to SKOV3 and OVCAR8 cells. Cell binding assay (ELISA) was carried out to assess PTP liposome association to cell surface plectin on SKOV3 and OVCAR8 cells. Liposomes (No Pep, NCP and PTP) at varying concentrations were incubated with FT132, SKOV3 and OVCAR8 cells for 1 h at 37° C. […] NCP binding was subtracted from PTP liposomes to determine specific binding of PTP liposomes to A) FT132, B) SKOV3 and C) OVCAR8 cells for 1 h at 37° C. followed by quantification of DiR using fluorescent plate reader.

[4] = biological target: T2, recombinant his-tagged C-terminus fragment of plectin (4379-4684 aa) (human, UniProt Q15149 4379-4684); assay: BLI (ForteBio Octet), his-tagged plectin C-terminus fragment loaded on anti-His sensors, liposomes in solution
T2 construct: range 4379-4684; also called his-tagged plectin fragment; c-terminus fragment of plectin (4379-4384 aa); not shown: his tag
T2 sequence (looked up): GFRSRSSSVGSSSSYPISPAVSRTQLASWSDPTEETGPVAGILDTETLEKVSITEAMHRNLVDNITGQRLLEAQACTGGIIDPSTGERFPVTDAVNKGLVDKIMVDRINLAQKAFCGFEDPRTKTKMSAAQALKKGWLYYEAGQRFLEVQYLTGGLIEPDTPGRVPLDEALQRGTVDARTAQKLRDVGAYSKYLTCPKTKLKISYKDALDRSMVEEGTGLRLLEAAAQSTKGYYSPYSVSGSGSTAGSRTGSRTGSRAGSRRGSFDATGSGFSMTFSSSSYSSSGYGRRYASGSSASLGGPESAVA
Procedure: Biolayer Interferometry (BLI) to Study PTP-Liposomes Binding to C-Terminus Fragment of Plectin Biolayer interferometry (BLI) was performed using ForteBio octect Red 96 system (ForteBio, Menlo Park, CA), we used recombinant C-terminus fragment of plectin (4379-4684 aa). All BLI assays were performed in black 96 well plates (Nunc F96 Micro Well plates, Thermo Fisher, Waltham, MA). The total working volume for samples or buffer was 0.2 mL per well and the rpm setting for each equilibration and loading steps was set at 1000 rpm. The association and dissociation step with C-terminus fragment of plectin and peptide-liposomes was carried out at 600 rpm. Prior to each assay, anti-his biosensor tips were pre-wetted in 0.2 mL PBS for at least 10 min followed by equilibrium with PBS for 100 seconds. Anti-his biosensors were then non-covalently loaded with his-tagged C-terminus fragment ([…]) (100 sec). Subsequently, association with No peptide, NCP (Negative Control Peptide) and PTP liposomes (40 mM) (300 sec) was be carried out. Finally, the dissociation was monitored in PBS for 600 sec.
Figure 2A: FIGS. 2A-B described plectin-targeted peptide (PTP) liposomes binding to Plectin. A) PTP peptide was conjugated to DSPE-PEG-MALEIMIDE via the thiol present on the C-terminus of the peptide. […]

[5] = biological target: T1, cell surface plectin on ovarian cancer …; assay: cell binding assay on SKOV3 cells; DiR fluorescence; NCP and no-peptide liposome binding subtracted; SKOV3 cells
Procedure: as §1, §2

[6] = biological target: T1, cell surface plectin on ovarian cancer …; assay: cell binding assay on OVCAR8 cells; DiR fluorescence; NCP and no-peptide liposome binding subtracted; OVCAR8 cells
Procedure: as §1, §2

[7] = biological target: T1, cell surface plectin on ovarian cancer …; assay: cell binding assay on FT132 cells (healthy fallopian tube cells), DiR fluorescence at 780 nm, 1 h at 37 C; fit of the SPECIFIC curve; no unit beside the number, concentration axis in nM
Procedure: as §1, §2

T1 sequence (Q15149 whole entry): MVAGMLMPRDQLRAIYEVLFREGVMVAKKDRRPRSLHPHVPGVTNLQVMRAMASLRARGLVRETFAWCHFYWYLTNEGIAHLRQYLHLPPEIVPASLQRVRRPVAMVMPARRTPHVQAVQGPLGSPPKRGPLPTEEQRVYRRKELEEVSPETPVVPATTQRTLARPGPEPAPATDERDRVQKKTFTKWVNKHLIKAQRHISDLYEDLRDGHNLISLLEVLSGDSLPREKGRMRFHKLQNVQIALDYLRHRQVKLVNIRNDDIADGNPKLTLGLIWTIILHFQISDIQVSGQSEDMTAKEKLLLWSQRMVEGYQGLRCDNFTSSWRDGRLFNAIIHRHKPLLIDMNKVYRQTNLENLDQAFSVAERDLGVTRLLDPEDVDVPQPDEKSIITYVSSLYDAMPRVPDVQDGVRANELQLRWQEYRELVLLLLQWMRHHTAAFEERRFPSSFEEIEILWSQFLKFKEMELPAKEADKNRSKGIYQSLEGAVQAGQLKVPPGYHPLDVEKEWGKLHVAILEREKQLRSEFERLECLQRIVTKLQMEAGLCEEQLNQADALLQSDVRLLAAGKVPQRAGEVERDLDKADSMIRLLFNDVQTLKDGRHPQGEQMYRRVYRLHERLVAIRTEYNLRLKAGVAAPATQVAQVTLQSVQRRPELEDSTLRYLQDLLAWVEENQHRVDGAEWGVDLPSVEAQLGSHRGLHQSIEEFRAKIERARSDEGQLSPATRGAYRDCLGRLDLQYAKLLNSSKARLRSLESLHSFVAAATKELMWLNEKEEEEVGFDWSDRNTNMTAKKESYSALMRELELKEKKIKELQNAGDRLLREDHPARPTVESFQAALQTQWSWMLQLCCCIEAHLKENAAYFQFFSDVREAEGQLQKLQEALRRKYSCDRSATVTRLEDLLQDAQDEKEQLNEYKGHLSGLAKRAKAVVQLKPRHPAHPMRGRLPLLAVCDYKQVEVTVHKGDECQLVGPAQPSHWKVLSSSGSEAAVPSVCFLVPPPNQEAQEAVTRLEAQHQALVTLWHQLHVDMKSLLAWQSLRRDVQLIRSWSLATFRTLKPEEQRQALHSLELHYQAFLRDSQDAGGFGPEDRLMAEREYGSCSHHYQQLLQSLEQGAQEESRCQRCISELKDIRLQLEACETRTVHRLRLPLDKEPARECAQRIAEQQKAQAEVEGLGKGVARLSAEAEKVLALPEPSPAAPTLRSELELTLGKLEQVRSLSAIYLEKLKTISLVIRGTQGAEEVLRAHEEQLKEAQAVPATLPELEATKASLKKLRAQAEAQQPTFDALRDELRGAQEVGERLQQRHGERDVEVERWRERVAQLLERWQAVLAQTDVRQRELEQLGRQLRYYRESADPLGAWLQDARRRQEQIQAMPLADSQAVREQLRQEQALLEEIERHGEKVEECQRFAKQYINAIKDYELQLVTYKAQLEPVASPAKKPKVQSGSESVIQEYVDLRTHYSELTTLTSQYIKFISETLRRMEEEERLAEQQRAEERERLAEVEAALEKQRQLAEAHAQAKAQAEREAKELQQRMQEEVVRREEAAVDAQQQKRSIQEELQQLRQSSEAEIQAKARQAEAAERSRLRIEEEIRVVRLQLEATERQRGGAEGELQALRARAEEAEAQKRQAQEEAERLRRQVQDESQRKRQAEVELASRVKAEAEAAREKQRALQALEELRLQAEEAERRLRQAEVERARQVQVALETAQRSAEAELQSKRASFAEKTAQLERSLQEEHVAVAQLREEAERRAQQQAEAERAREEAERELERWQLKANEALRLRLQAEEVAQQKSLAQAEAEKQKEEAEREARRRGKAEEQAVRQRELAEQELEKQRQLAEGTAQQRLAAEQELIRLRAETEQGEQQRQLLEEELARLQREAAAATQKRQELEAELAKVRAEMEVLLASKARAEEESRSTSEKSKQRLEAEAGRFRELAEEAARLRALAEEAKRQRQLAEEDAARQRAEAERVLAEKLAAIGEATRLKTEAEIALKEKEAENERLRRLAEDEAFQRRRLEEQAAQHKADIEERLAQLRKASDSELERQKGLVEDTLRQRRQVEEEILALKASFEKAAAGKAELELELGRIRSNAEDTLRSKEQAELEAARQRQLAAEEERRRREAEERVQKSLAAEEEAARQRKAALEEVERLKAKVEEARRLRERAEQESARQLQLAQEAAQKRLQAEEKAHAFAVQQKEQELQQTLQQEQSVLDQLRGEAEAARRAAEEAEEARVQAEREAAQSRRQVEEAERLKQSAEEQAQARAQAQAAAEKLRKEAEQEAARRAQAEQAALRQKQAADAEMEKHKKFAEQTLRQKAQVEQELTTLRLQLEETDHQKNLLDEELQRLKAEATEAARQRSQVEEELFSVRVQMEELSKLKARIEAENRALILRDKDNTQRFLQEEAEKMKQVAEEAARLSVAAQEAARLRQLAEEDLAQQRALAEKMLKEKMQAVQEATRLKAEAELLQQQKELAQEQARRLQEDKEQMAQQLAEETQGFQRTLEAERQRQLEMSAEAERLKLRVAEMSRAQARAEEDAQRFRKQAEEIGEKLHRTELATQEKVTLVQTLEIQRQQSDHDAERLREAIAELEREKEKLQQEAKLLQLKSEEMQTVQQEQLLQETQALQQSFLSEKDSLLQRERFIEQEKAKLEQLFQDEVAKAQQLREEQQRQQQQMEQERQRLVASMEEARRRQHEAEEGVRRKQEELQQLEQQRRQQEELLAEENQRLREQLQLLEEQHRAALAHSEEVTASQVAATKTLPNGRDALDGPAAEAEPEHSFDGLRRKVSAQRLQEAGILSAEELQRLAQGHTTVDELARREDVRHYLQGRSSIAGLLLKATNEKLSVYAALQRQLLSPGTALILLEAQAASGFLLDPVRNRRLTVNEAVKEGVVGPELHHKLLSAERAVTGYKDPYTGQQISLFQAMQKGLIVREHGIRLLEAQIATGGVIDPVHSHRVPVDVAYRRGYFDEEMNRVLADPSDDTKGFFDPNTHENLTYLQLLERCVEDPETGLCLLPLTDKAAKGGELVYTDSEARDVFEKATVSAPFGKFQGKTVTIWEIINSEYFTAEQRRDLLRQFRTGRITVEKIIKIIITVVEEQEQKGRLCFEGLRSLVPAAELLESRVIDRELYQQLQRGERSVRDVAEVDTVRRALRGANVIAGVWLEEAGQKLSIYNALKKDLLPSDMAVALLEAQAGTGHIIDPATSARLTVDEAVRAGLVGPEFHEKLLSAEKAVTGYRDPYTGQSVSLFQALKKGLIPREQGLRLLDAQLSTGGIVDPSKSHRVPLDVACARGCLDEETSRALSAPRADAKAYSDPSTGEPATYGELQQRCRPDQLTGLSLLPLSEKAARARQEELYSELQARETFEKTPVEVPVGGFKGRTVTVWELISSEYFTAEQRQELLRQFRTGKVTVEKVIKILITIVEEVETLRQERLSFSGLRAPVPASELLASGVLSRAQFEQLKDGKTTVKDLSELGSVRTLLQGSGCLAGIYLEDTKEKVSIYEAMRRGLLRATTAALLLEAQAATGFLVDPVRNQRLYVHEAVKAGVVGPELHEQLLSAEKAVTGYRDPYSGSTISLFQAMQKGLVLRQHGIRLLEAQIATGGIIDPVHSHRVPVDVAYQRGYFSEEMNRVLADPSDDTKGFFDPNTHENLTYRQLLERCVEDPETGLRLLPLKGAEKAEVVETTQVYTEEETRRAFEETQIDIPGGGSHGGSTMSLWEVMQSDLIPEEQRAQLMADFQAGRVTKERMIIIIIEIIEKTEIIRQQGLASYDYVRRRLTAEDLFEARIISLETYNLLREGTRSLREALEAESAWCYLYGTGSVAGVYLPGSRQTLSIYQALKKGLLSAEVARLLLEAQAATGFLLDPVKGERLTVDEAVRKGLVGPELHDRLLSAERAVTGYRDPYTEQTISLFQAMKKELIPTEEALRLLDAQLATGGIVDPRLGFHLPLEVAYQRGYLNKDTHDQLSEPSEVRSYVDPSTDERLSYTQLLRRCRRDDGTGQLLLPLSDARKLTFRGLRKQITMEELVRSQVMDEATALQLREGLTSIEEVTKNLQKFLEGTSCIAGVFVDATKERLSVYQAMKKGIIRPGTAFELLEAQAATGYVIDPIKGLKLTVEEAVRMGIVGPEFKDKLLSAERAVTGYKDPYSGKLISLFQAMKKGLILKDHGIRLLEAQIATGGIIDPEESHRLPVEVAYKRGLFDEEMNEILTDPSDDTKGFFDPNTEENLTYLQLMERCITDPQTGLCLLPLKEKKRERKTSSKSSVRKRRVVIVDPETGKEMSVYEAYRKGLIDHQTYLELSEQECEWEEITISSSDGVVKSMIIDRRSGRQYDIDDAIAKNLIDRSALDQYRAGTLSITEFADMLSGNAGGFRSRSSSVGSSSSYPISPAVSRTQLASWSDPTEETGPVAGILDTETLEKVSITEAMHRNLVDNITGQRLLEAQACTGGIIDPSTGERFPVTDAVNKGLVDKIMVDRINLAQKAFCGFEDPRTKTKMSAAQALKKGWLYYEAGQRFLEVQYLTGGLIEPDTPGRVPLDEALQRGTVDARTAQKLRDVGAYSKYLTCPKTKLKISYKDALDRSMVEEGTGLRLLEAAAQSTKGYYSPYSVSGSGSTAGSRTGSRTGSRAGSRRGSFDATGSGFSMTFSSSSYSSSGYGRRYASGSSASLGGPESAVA

Molecule: COc1cccc2c1C(=O)c1c(O)c3c(c(O)c1C2=O)C[C@@](O)(C(=O)CO)C[C@@H]3O[C@H]1C[C@H](N)[C@H](O)[C@H](C)O1 [doxorubicin]
drug loading previously reported [1]: 200 μg drug per mg of lipid

Molecule: CNCc1ccc(-c2[nH]c3cc(F)cc4c3c2CCNC4=O)cc1 [Rucaparib]
patients showing benefit (pancreatic cancer): 36%

Molecule: O=C(c1cc(Cc2n[nH]c(=O)c3ccccc23)ccc1F)N1CCN(C(=O)C2CC2)CC1 [Olaparib]
patients who developed myelodysplastic syndrome and acute myeloid leukemia [2]: About 2% | patients with adverse side effects (neutropenia, thrombocytopenia) ([2]; doses necessary to achieve PARP inhibition): About 10%

binding result [3]: no binding (tested: 0.3 nM) | binding result [4]: no binding
B1: NCP liposomes (Negative Control Peptide TALPRLNGGSK(FAM)C conjugated to DSPE-PEG3400-Maleimide and displayed on liposomes) (peptide)
peptide: TALPRLNGGSK(FAM)C([maleimide-PEG3400-DSPE])-NH2
modifications: also: displayed on liposomes
notes: Control peptide, tested only as a display on liposomes

Kd [5]: 0.12 nM | Kd [6]: 0.11 nM | Kd [7]: 0.06 nM
B2: PTP liposomes (Plectin Targeting Peptide KTLLPTPGGSK(FAM)C conjugated to DSPE-PEG3400-Maleimide and displayed on DOPC/cholesterol/DSPE-PEG2000/DiR liposomes) (peptide)
peptide: KTLLPTPGGSK(FAM)C([maleimide-PEG3400-DSPE])-NH2
modifications: also: displayed on liposomes
notes: Tested only as a multivalent display on liposomes (about 110-120 nm), not as free peptide; also called Plectin Targeted Peptide; PTP-PEG3400-DSPE
